Reference: publication PMC2686265, “ATP and MO25α Regulate the Conformational State of the STRADα Pseudokinase and Activation of the LKB1 Tumour Suppressor” (PLoS Biology, 2009)

Assays:
[1] = target: T1, STRADα (Homo sapiens, UniProt Q7RTN6); assay: TNP-ATP saturation binding (fluorescence); conditions: STRADα alone
T1 construct: wild-type and mutant forms of STRADα (residues 54–431) and MO25α (residues 1–341) were expressed individually as GST fusion proteins in E. coli; GST (cleaved yes); made in house; host or cells: E. coli
T1 sequence (Q7RTN6 54-431): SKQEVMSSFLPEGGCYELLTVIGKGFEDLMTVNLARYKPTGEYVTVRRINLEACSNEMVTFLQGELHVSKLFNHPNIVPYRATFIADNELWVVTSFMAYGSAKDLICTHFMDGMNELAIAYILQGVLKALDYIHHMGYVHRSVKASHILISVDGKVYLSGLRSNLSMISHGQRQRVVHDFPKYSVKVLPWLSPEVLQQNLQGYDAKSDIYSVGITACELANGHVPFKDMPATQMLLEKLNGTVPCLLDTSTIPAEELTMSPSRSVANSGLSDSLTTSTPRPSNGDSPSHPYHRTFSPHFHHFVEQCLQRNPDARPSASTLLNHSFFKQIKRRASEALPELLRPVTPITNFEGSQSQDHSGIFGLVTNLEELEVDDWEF
Protocol: (§1) Fluorescent measurements of TNP-ATP (Molecular Probes), were obtained at 25°C in assay buffer (with the addition of 0.5–1.0 mM MgCl2 where indicated) using 1-cm pathlength cuvettes in a VARIAN Cary Eclipse Fluorescence spectrophotometer (Varian). Fluorescence was recorded using a 410-nm/540-nm excitation/emission wavelengths from 500 to 600 nm. In all cases, signal from the TNP-ATP buffer control was subtracted as background. For all binding studies, STRADα and STRADα mutants were assayed at 2 µM. In cases where STRADα/MO25α complexes were assayed, wild-type or mutant MO25α (2 µM) were preincubated for at least 2 h at 4°C prior to a fluorescence binding experiment. For saturation binding experiments, concentrated stocks of TNP-ATP were added stepwise, covering a range of concentrations from 0.05 to 30 µM. For displacement experiments, the concentration of TNP-ATP was fixed at 5 µM, and ATP or ADP was titrated in, covering a range of concentrations from 0.05 to 500 µM.
(§2) All data were analysed using GraphPad-PRISM software (http://www.graphpad.com). […] In the displacement studies, equilibrium constant values for ATP and ADP were calculated by first determining the logEC50 value, using a standard dose-response equation: F x/F max = minimum+(maximum−minimum)/(1+10^([N]−logEC 50 ^)), where [N] equals the concentration of added nucleotide, and F x/F max represents the fractional occupancy. Equilibrium constants for the competing ATP and ADP (K d ^N), were fitted using the equation: logEC50 = log(10^logK d ^N × (1+[TNP−ATP]/K d ^TNP−ATP)).

[2] = target: T2, STRADα/MO25α complex (Homo sapiens, UniProt Q7RTN6); assay: TNP-ATP saturation binding (fluorescence); conditions: No Mg2+
T2 construct: wild-type and mutant forms of STRADα (residues 54–431) and MO25α (residues 1–341) were expressed individually as GST fusion proteins in E. coli; GST (cleaved yes); made in house; host or cells: E. coli
T2 sequence (Q7RTN6 54-431): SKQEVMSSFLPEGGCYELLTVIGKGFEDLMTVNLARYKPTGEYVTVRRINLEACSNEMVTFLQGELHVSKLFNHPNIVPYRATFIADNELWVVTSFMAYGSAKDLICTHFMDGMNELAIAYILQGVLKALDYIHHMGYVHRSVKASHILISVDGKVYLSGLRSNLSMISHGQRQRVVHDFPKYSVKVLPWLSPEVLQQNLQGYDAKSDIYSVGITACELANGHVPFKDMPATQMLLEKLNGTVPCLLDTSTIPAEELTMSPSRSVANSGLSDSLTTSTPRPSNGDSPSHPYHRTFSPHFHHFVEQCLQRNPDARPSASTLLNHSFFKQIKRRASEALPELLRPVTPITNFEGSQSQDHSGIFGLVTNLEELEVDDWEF
T2 sequence (Q9Y376 1-341 partner): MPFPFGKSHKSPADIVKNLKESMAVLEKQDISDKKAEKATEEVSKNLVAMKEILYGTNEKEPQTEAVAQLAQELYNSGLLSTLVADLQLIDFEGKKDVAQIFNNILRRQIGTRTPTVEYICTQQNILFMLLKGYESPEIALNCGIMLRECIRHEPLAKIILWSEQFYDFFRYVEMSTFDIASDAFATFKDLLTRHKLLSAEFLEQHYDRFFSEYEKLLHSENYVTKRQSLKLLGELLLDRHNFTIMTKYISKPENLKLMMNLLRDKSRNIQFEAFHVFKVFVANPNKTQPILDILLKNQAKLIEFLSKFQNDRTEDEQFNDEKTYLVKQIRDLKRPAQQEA
Protocol: as §1, §2

[3] = target: T3, His-STRADα (residues 59–431) (human, UniProt Q7RTN6 59-431, lysines chemically methylated in the 2.35 Å crystal form only); assay: crystal structure; co-expressed His-STRADα(59–431)/MO25α(1–341) complex at 7.5 mg/ml with 10 mM ATP and 1 mM MgCl2, sitting drop; unmethylated crystals 4.8 Å, lysine-methylated crystals 2.35 Å, space group P212121; conditions: both partners purified
T3 construct: STRADα (STe-20 Related Adaptor alpha), human, residues 59–431; Crystallised both unmethylated (4.8 Å) and lysine-methylated (2.35 Å, PDB 3GNI); unmethylated in SPR; also called N-terminally 6-His-tagged STRADα; His-tagged STRADα; source: E. coli BL21(DE3)pLysS, coexpressed with untagged MO25α, purified (Ni2+ IMAC, Superdex 75); for SPR separated from MO25α on Ni2+-agarose (500 mM NaCl washes, …)
T3 sequence (looked up): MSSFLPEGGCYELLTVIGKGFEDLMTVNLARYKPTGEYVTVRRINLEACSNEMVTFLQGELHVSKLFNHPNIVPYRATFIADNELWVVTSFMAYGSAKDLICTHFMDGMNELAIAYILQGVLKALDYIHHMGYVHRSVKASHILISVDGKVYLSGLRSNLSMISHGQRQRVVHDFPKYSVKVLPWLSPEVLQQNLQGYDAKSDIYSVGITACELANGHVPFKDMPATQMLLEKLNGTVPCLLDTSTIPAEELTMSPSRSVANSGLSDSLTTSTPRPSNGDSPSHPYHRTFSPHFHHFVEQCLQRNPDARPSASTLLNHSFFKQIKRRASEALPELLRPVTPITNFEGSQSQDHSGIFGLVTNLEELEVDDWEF

[4] = target: T4, untagged STRADα (residues 59–431) (human, UniProt Q7RTN6 59-431); assay: SPR; as a2 but with 100 µM ATP and 1 mM MgCl2 (MgATP); conditions: both partners purified
T4 construct: STRADα, human, residues 59–431; also called STRADα lacking the His tag
T4 sequence (looked up): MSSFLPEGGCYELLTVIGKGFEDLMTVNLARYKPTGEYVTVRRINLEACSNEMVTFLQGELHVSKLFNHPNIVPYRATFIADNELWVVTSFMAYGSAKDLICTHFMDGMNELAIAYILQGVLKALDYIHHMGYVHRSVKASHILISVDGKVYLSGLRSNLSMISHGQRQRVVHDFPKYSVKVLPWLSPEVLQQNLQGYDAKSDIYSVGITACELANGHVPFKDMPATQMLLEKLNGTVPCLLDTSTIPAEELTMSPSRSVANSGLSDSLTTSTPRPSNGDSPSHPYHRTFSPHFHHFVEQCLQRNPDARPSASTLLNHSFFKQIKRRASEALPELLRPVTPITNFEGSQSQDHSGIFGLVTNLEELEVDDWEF

[5] = target: T5, MO25α (M260A) (residues 1–341) (human, UniProt Q9Y376 1-341, M260A); assay: SPR
T5 sequence: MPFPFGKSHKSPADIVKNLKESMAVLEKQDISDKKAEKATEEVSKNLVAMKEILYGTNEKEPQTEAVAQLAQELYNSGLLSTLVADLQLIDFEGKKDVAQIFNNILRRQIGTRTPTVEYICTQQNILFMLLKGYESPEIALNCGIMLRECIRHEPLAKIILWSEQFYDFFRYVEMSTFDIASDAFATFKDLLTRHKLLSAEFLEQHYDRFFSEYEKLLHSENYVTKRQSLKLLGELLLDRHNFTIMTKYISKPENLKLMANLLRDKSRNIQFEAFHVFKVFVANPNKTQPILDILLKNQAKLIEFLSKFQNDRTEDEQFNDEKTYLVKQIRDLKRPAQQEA

[6] = target: T6, MO25α (R227A) (residues 1–341) (human, UniProt Q9Y376 1-341, R227A); assay: SPR; ATP+Mg2+, Kd1
T6 sequence: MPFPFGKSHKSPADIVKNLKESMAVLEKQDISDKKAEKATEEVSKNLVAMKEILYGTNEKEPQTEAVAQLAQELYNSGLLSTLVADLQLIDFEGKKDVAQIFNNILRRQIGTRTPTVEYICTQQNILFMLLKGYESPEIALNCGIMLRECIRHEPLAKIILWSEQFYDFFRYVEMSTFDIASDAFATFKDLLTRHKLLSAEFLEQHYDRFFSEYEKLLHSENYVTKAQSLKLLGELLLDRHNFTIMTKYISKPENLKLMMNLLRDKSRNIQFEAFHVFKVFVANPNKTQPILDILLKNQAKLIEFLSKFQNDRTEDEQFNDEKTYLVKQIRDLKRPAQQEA

[7] = target: T5, MO25α (M260A) (residues 1–341); assay: SPR; ATP+Mg2+, Kd1
[8] = target: T7, MO25α (WT) (residues 1–341) (human, UniProt Q9Y376 1-341); assay: SPR; ATP+Mg2+, Kd1
T7 chain: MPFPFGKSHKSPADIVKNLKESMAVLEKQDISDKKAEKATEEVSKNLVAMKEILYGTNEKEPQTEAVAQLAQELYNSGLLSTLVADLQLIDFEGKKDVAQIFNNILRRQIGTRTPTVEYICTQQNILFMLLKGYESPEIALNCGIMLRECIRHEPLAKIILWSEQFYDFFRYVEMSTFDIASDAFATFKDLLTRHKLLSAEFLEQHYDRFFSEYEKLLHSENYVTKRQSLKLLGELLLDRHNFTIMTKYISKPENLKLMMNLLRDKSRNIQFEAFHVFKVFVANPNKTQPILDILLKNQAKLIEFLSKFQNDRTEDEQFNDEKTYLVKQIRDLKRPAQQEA

[9] = target: T5, MO25α (M260A) (residues 1–341); assay: SPR; ATP, Kd2 (second site)
[10] = target: T5, MO25α (M260A) (residues 1–341); assay: SPR; ATP+Mg2+, Kd2 (second site)
[11] = target: T7, MO25α (WT) (residues 1–341); assay: SPR; ATP+Mg2+, Kd2 (second site)
[12] = target: T6, MO25α (R227A) (residues 1–341); assay: SPR; ATP, Kd1
[13] = target: T5, MO25α (M260A) (residues 1–341); assay: SPR; ATP, Kd1

## Nc1ncnc2c1ncn2[C@@H]1O[C@H](COP(=O)(O)OP(=O)(O)OP(=O)(O)O)[C@H]2OC3(O[C@H]21)C([N+](=O)[O-])=CC(=[N+]([O-])[O-])C=C3[N+](=O)[O-] (some centres unmarked) [TNP-ATP, 2′,3′-O-2,4,6-trinitrophenyl-ATP]
[1]; 0.5 mM Mg2+
  Kd: 1300 ± 800 nM
[1]; No Mg2+
  Kd: 1100 nM
[2]
  Kd: 90 ± 30 nM

B1: full-length MO25α (residues 1–341), untagged (natural protein, human, UniProt Q9Y376 1-341, looked up)
chain: MPFPFGKSHKSPADIVKNLKESMAVLEKQDISDKKAEKATEEVSKNLVAMKEILYGTNEKEPQTEAVAQLAQELYNSGLLSTLVADLQLIDFEGKKDVAQIFNNILRRQIGTRTPTVEYICTQQNILFMLLKGYESPEIALNCGIMLRECIRHEPLAKIILWSEQFYDFFRYVEMSTFDIASDAFATFKDLLTRHKLLSAEFLEQHYDRFFSEYEKLLHSENYVTKRQSLKLLGELLLDRHNFTIMTKYISKPENLKLMMNLLRDKSRNIQFEAFHVFKVFVANPNKTQPILDILLKNQAKLIEFLSKFQNDRTEDEQFNDEKTYLVKQIRDLKRPAQQEA
modifications: lysines chemically methylated in the 2.35 Å crystal form only
notes: MO25α, human, full length, residues 1–341; source: E. coli BL21(DE3)pLysS, coexpressed with His-STRADα, co-purified (Ni2+ IMAC, Superdex 75)
[3]
  binding result: binds

B2: MO25α (R227A) (residues 1–341) (natural protein, human, UniProt Q9Y376 1-341, looked up)
chain: MPFPFGKSHKSPADIVKNLKESMAVLEKQDISDKKAEKATEEVSKNLVAMKEILYGTNEKEPQTEAVAQLAQELYNSGLLSTLVADLQLIDFEGKKDVAQIFNNILRRQIGTRTPTVEYICTQQNILFMLLKGYESPEIALNCGIMLRECIRHEPLAKIILWSEQFYDFFRYVEMSTFDIASDAFATFKDLLTRHKLLSAEFLEQHYDRFFSEYEKLLHSENYVTKAQSLKLLGELLLDRHNFTIMTKYISKPENLKLMMNLLRDKSRNIQFEAFHVFKVFVANPNKTQPILDILLKNQAKLIEFLSKFQNDRTEDEQFNDEKTYLVKQIRDLKRPAQQEA
notes: MO25α, human, residues 1–341 (full length), R227A; source: E. coli, expressed individually as GST fusion, purified on glutathione-Sepharose, eluted with PreScission protease
[4]
  binding result: binds

B3: untagged STRADα (residues 59–431) (domain or fragment)
chain: MSSFLPEGGCYELLTVIGKGFEDLMTVNLARYKPTGEYVTVRRINLEACSNEMVTFLQGELHVSKLFNHPNIVPYRATFIADNELWVVTSFMAYGSAKDLICTHFMDGMNELAIAYILQGVLKALDYIHHMGYVHRSVKASHILISVDGKVYLSGLRSNLSMISHGQRQRVVHDFPKYSVKVLPWLSPEVLQQNLQGYDAKSDIYSVGITACELANGHVPFKDMPATQMLLEKLNGTVPCLLDTSTIPAEELTMSPSRSVANSGLSDSLTTSTPRPSNGDSPSHPYHRTFSPHFHHFVEQCLQRNPDARPSASTLLNHSFFKQIKRRASEALPELLRPVTPITNFEGSQSQDHSGIFGLVTNLEELEVDDWEF
[5]
  Kd: 8100 nM
[6]
  Kd: 800 nM
[7]
  Kd: 2300 nM
[8]
  Kd: 5100 nM
[9]
  Kd: 30 nM
[10]
  Kd: 82 nM
[11]
  Kd: 51 nM
[12]
  Kd: 600 nM
[13]
  Kd: 1500 nM
